Results reported in US20120245104A1, “NOVEL RETRO-INVERSO LEPTIN PEPTIDE ANTAGONISTS” (priority 2011, published 2012).
Where no end group is shown, it is not given here. [ ]: non-standard residue; d: D form.

Key:
[1] = molecular target: T1, leptin receptor (ObR) (UniProt P48357 22-1165, limits assumed); assay: cell-based or functional assay
T1 sequence (looked up): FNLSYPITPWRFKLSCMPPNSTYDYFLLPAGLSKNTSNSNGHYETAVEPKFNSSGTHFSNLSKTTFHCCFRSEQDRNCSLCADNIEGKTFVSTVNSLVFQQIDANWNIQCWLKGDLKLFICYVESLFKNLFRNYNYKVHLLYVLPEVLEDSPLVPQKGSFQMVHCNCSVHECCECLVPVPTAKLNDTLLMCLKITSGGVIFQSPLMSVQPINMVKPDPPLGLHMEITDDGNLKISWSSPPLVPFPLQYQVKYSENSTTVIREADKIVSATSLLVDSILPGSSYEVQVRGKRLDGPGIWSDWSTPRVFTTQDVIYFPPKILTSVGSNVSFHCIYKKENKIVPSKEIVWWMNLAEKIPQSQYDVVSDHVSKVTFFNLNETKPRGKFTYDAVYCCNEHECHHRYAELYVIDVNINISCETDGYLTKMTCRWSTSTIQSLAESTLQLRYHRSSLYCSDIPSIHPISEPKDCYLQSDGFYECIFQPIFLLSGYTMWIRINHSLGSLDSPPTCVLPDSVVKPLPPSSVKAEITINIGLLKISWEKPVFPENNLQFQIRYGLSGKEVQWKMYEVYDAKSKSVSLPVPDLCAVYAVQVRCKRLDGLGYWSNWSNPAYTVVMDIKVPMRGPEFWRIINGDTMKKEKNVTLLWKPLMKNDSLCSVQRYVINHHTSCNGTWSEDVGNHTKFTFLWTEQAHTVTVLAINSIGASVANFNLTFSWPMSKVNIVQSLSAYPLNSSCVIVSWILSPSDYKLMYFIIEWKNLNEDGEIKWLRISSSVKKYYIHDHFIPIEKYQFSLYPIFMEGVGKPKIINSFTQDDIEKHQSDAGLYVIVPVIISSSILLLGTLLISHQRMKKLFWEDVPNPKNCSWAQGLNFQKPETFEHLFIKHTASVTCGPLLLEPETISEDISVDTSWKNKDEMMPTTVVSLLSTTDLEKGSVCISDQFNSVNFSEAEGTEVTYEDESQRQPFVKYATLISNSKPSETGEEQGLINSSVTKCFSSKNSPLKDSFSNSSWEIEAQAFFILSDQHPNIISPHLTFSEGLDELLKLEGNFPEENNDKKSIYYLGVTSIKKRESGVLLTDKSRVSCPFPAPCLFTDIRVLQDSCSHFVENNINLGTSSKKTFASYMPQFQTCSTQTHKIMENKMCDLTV

[2] = molecular target: T1, leptin receptor (ObR); assay: cell-based or functional assay; remark: listed apart in the source

IQKVQDDTKTLIKTIVTRINDISHTQSVSSKQ-NH2 [Full-length LPA-1 (3-34)]
IC50 (half maximal inhibitory concentration), inhibition of leptin-induced cell growth [1]: 39.1 nM
IC50, inhibition of leptin-induced growth of MCF-7 cells [2]: 39.1 nM

VQDDVKTLIKTIVTRINDI-NH2 [Truncated LPA-1 (6-24), T10 Val substitution]
IC50 (half maximal inhibitory concentration), inhibition of leptin-induced cell growth [1]: 20.7 nM

NVIQISNVLENLRDLLHV-NH2 [Truncated LPA-2 (72-89), D79 Val substitution]
IC50 (half maximal inhibitory concentration), inhibition of leptin-induced cell growth [1]: 15.6 nM

B1: Retro-inverso LPA-1(24-6), D-T10 (peptide)
peptide: H-[dI][dD][dN][dI][dR][dT][dV][dI][dT][dK][dI][dL][dT][dK][dT][dD][dD][dQ][dV]-NH2
SMILES: CC[C@@H](C)[C@@H](N)C(=O)N[C@H](CC(=O)O)C(=O)N[C@H](CC(N)=O)C(=O)N[C@@H](C(=O)N[C@H](CCCNC(=N)N)C(=O)N[C@@H](C(=O)N[C@@H](C(=O)N[C@@H](C(=O)N[C@@H](C(=O)N[C@H](CCCCN)C(=O)N[C@@H](C(=O)N[C@H](CC(C)C)C(=O)N[C@@H](C(=O)N[C@H](CCCCN)C(=O)N[C@@H](C(=O)N[C@H](CC(=O)O)C(=O)N[C@H](CC(=O)O)C(=O)N[C@H](CCC(N)=O)C(=O)N[C@@H](C(N)=O)C(C)C)[C@H](C)O)[C@H](C)O)[C@H](C)CC)[C@H](C)O)[C@H](C)CC)C(C)C)[C@H](C)O)[C@H](C)CC
IC50, inhibition of leptin-induced growth of MCF-7 cells [2]: 16.9 nM

B2: Retro-inverso LPA-2(89-72), D-D79 (peptide)
peptide: H-[dV][dH][dL][dL][dD][dR][dL][dN][dE][dL][dD][dN][dS][dI][dQ][dI][dV][dN]-NH2
SMILES: CC[C@@H](C)[C@@H](NC(=O)[C@@H](CO)NC(=O)[C@@H](CC(N)=O)NC(=O)[C@@H](CC(=O)O)NC(=O)[C@@H](CC(C)C)NC(=O)[C@@H](CCC(=O)O)NC(=O)[C@@H](CC(N)=O)NC(=O)[C@@H](CC(C)C)NC(=O)[C@@H](CCCNC(=N)N)NC(=O)[C@@H](CC(=O)O)NC(=O)[C@@H](CC(C)C)NC(=O)[C@@H](CC(C)C)NC(=O)[C@@H](Cc1c[nH]cn1)NC(=O)[C@H](N)C(C)C)C(=O)N[C@H](CCC(N)=O)C(=O)N[C@@H](C(=O)N[C@@H](C(=O)N[C@H](CC(N)=O)C(N)=O)C(C)C)[C@H](C)CC
IC50, inhibition of leptin-induced growth of MCF-7 cells [2]: 19.4 nM

B3: Retro-inverso LPA-1(24-6), D-I10 (peptide)
peptide: H-[dI][dD][dN][dI][dR][dT][dV][dI][dT][dK][dI][dL][dT][dK][dI][dD][dD][dQ][dV]-NH2
SMILES: CC[C@@H](C)[C@@H](N)C(=O)N[C@H](CC(=O)O)C(=O)N[C@H](CC(N)=O)C(=O)N[C@@H](C(=O)N[C@H](CCCNC(=N)N)C(=O)N[C@@H](C(=O)N[C@@H](C(=O)N[C@@H](C(=O)N[C@@H](C(=O)N[C@H](CCCCN)C(=O)N[C@@H](C(=O)N[C@H](CC(C)C)C(=O)N[C@@H](C(=O)N[C@H](CCCCN)C(=O)N[C@@H](C(=O)N[C@H](CC(=O)O)C(=O)N[C@H](CC(=O)O)C(=O)N[C@H](CCC(N)=O)C(=O)N[C@@H](C(N)=O)C(C)C)[C@H](C)CC)[C@H](C)O)[C@H](C)CC)[C@H](C)O)[C@H](C)CC)C(C)C)[C@H](C)O)[C@H](C)CC
IC50, inhibition of leptin-induced growth of MCF-7 cells [2]: 17.6 nM

B4: Retro-inverso LPA-2(89-72), D-I79 (peptide)
peptide: H-[dV][dH][dL][dL][dD][dR][dL][dN][dE][dL][dI][dN][dS][dI][dQ][dI][dV][dN]-NH2
SMILES: CC[C@@H](C)[C@@H](NC(=O)[C@@H](CC(C)C)NC(=O)[C@@H](CCC(=O)O)NC(=O)[C@@H](CC(N)=O)NC(=O)[C@@H](CC(C)C)NC(=O)[C@@H](CCCNC(=N)N)NC(=O)[C@@H](CC(=O)O)NC(=O)[C@@H](CC(C)C)NC(=O)[C@@H](CC(C)C)NC(=O)[C@@H](Cc1c[nH]cn1)NC(=O)[C@H](N)C(C)C)C(=O)N[C@H](CC(N)=O)C(=O)N[C@H](CO)C(=O)N[C@@H](C(=O)N[C@H](CCC(N)=O)C(=O)N[C@@H](C(=O)N[C@@H](C(=O)N[C@H](CC(N)=O)C(N)=O)C(C)C)[C@H](C)CC)[C@H](C)CC
IC50, inhibition of leptin-induced growth of MCF-7 cells [2]: 9.7 nM

B5: Retro-inverso LPA-1(24-6), D-L10 (peptide)
peptide: H-[dI][dD][dN][dI][dR][dT][dV][dI][dT][dK][dI][dL][dT][dK][dL][dD][dD][dQ][dV]-NH2
SMILES: CC[C@@H](C)[C@@H](N)C(=O)N[C@H](CC(=O)O)C(=O)N[C@H](CC(N)=O)C(=O)N[C@@H](C(=O)N[C@H](CCCNC(=N)N)C(=O)N[C@@H](C(=O)N[C@@H](C(=O)N[C@@H](C(=O)N[C@@H](C(=O)N[C@H](CCCCN)C(=O)N[C@@H](C(=O)N[C@H](CC(C)C)C(=O)N[C@@H](C(=O)N[C@H](CCCCN)C(=O)N[C@H](CC(C)C)C(=O)N[C@H](CC(=O)O)C(=O)N[C@H](CC(=O)O)C(=O)N[C@H](CCC(N)=O)C(=O)N[C@@H](C(N)=O)C(C)C)[C@H](C)O)[C@H](C)CC)[C@H](C)O)[C@H](C)CC)C(C)C)[C@H](C)O)[C@H](C)CC
IC50, inhibition of leptin-induced growth of MCF-7 cells [2]: 11.8 nM

B6: Retro-inverso LPA-2(89-72), D-L79 (peptide)
peptide: H-[dV][dH][dL][dL][dD][dR][dL][dN][dE][dL][dL][dN][dS][dI][dQ][dI][dV][dN]-NH2
SMILES: CC[C@@H](C)[C@@H](NC(=O)[C@@H](CO)NC(=O)[C@@H](CC(N)=O)NC(=O)[C@@H](CC(C)C)NC(=O)[C@@H](CC(C)C)NC(=O)[C@@H](CCC(=O)O)NC(=O)[C@@H](CC(N)=O)NC(=O)[C@@H](CC(C)C)NC(=O)[C@@H](CCCNC(=N)N)NC(=O)[C@@H](CC(=O)O)NC(=O)[C@@H](CC(C)C)NC(=O)[C@@H](CC(C)C)NC(=O)[C@@H](Cc1c[nH]cn1)NC(=O)[C@H](N)C(C)C)C(=O)N[C@H](CCC(N)=O)C(=O)N[C@@H](C(=O)N[C@@H](C(=O)N[C@H](CC(N)=O)C(N)=O)C(C)C)[C@H](C)CC
IC50, inhibition of leptin-induced growth of MCF-7 cells [2]: 18.7 nM

B7: Retro-inverso LPA-1(24-6), D-V10 (peptide)
peptide: H-[dI][dD][dN][dI][dR][dT][dV][dI][dT][dK][dI][dL][dT][dK][dV][dD][dD][dQ][dV]-NH2
SMILES: CC[C@@H](C)[C@@H](N)C(=O)N[C@H](CC(=O)O)C(=O)N[C@H](CC(N)=O)C(=O)N[C@@H](C(=O)N[C@H](CCCNC(=N)N)C(=O)N[C@@H](C(=O)N[C@@H](C(=O)N[C@@H](C(=O)N[C@@H](C(=O)N[C@H](CCCCN)C(=O)N[C@@H](C(=O)N[C@H](CC(C)C)C(=O)N[C@@H](C(=O)N[C@H](CCCCN)C(=O)N[C@@H](C(=O)N[C@H](CC(=O)O)C(=O)N[C@H](CC(=O)O)C(=O)N[C@H](CCC(N)=O)C(=O)N[C@@H](C(N)=O)C(C)C)C(C)C)[C@H](C)O)[C@H](C)CC)[C@H](C)O)[C@H](C)CC)C(C)C)[C@H](C)O)[C@H](C)CC
IC50, inhibition of leptin-induced growth of MCF-7 cells [2]: 17.4 nM

B8: Retro-inverso LPA-2(89-72), D-V79 (peptide)
peptide: H-[dV][dH][dL][dL][dD][dR][dL][dN][dE][dL][dV][dN][dS][dI][dQ][dI][dV][dN]-NH2
SMILES: CC[C@@H](C)[C@@H](NC(=O)[C@@H](CO)NC(=O)[C@@H](CC(N)=O)NC(=O)[C@H](NC(=O)[C@@H](CC(C)C)NC(=O)[C@@H](CCC(=O)O)NC(=O)[C@@H](CC(N)=O)NC(=O)[C@@H](CC(C)C)NC(=O)[C@@H](CCCNC(=N)N)NC(=O)[C@@H](CC(=O)O)NC(=O)[C@@H](CC(C)C)NC(=O)[C@@H](CC(C)C)NC(=O)[C@@H](Cc1c[nH]cn1)NC(=O)[C@H](N)C(C)C)C(C)C)C(=O)N[C@H](CCC(N)=O)C(=O)N[C@@H](C(=O)N[C@@H](C(=O)N[C@H](CC(N)=O)C(N)=O)C(C)C)[C@H](C)CC
IC50, inhibition of leptin-induced growth of MCF-7 cells [2]: 13.6 nM

VQDDAKTLIKTIVTRINDI-NH2 [Truncated LPA-1 (6-24), T10 Ala substitution]
IC50 (half maximal inhibitory concentration), inhibition of leptin-induced cell growth [1]: 88 nM

NVIQISNALENLRDLLHV-NH2 [Truncated LPA-2 (72-89), D79 Ala substitution]
IC50 (half maximal inhibitory concentration), inhibition of leptin-induced cell growth [1]: 54 nM

VQDDIKTLIKTIVTRINDI-NH2 [Truncated LPA-1 (6-24), T10 Ile substitution]
IC50 (half maximal inhibitory concentration), inhibition of leptin-induced cell growth [1]: 21 nM

NVIQISNILENLRDLLHV-NH2 [Truncated LPA-2 (72-89), D79 Ile substitution]
IC50 (half maximal inhibitory concentration), inhibition of leptin-induced cell growth [1]: 16 nM

NVIQISNLLENLRDLLHV-NH2 [Truncated LPA-2 (72-89), D79 Leu substitution]
IC50 (half maximal inhibitory concentration), inhibition of leptin-induced cell growth [1]: 16 nM
